Measured values reported in patent publication US20240059799A1 (Pfizer, published 2024).

T1: recombinant human TL1A (human, UniProt O95150 71-251)
T1 construct: homotrimer; biotinylated for SPR capture; the ELISA paragraphs say only 'recombinant TL1A'; also called TNFSF15
T1 chain: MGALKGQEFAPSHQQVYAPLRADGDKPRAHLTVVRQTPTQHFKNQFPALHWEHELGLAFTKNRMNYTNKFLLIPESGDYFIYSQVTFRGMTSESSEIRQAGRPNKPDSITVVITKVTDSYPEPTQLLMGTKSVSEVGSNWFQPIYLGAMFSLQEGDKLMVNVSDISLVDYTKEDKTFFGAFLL

T2: recombinant human TL1A (human, UniProt O95150 71-251)
T2 chain: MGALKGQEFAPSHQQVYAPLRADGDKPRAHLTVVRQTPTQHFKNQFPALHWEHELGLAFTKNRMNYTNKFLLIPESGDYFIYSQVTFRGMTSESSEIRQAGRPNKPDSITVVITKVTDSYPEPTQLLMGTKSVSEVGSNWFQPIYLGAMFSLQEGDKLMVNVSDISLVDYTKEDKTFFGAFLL

B1: TL1A-0047 (antibody, human IgG1, kappa, V domains shown)
VH: EVQLVESGGGLVQPGGSLRLSCAASGYDFTYYGISWVRQAPGKGLEWVAWISTYNGNTHYARMLQGRFTISRDNAKNSLYLQMNSLRAEDTAVYYCARENYYGSGAYRGGMDVWGQGTTVTVSS
VL: EIVLTQSPATLSLSPGERATLSCRASQSVSSYLAWYQQKPGQAPRLLIYDASNRATGIPARFSGSGSGTDFTLTISSLEPEDFAVYYCQQRSNWPWTFGQGTKVEIKR
notes: IgG1/kappa; VH graft on IGHV3-7*01
B2: TL1A-0055 (antibody, human IgG1, kappa, V domains shown)
VH: EVQLVESGGGLVQPGGSLRLSCAASGYDFTYYGISWVRQAPGKGLEWVAWISTYNGNTHYARMLQGRFTISRDNAKNSLYLQMNSLRAEDTAVYYCARENYYGSGAYRGGMDVWGQGTTVTVSS
VL: EIVMTQSPATLSLSPGERATLSCRASQSVSSYLAWYQQKPGQAPRLLIYDASNRATGIPARFSGSGSGTDFTLTISSLQPEDFAVYYCQQRSNWPWTFGQGTKVEIKR
notes: IgG1/kappa; IGHV3-7*01 / IGKV3D-7*01 grafts
B3: TL1A-0303 (antibody, human IgG1, kappa, V domains shown)
VH: QVQLVQSGAEVKKPGASVKVSCKASGYDFTYYGIGWVRQAPGQGLEWMGWISTYNTGTHYAPSLQGRVTMTTDTSTSTAYMELRSLRSDDTAVYYCARESYYGSGAHRGGMDVWGQGTTVTVSS
VL: DIQMTQSPSSLSASVGDRVTITCRASQSVSSYLAWYQQKPGKAPKLLIYDASNRATGVPSRFSGSGSGTDFTLTISSLQPEDFATYYCQQRSNWPWTFGQGTKVEIKR
notes: human IgG1 effector-function-minimized/kappa
B4: TL1A-0291 (antibody, human IgG1, kappa, V domains shown)
VH: QVQLVQSGAEVKKPGASVKVSCKASGYDFTYYGVSWVRQAPGQGLEWMGWISTYNTGTHYAQKLQGRVTMTTDTSTSTAYMELRSLRSDDTAVYYCARESYYGSGAHRGGMDVWGQGTTVTVSS
VL: DIQMTQSPSSLSASVGDRVTITCRASQSVSSYLAWYQQKPGKAPKLLIYDASNRATGVPSRFSGSGSGTDFTLTISSLQPEDFATYYCQQRSNWPWTFGQGTKVEIKR
notes: as for B3
B5: TL1A-0051 (antibody, human IgG1, kappa, V domains shown)
VH: EVQLVESGGGLVQPGGSLRLSCAASGYDFTYYGISWVRQAPGKGLEWVAWISTYNGNTHYARMLQGRFTISRDNAKNSLYLQMNSLRAEDTAVYYCARENYYGSGAYRGGMDVWGQGTTVTVSS
VL: DIQMTQSPSSLSASVGDRVTITCRASQSVSSYLAWYQQKPGKAPKLLIYDASNRATGVPSRFSGSGSGTDFTLTISSLQPEDFATYYCQQRSNWPWTFGQGTKVEIKR
notes: IgG1/kappa; IGHV3-7*01 / IGKV1-39*01 grafts
B6: TL1A-0043 (antibody, human IgG1, kappa, V domains shown)
VH: QVQLVQSGAEVKKPGASVKVSCKASGYDFTYYGISWVRQAPGQGLEWMGWISTYNGNTHYARMLQGRVTMTTDTSTRTAYMELRSLRSDDTAVYYCARENYYGSGAYRGGMDVWGQGTTVTVSS
VL: EIVMTQSPATLSLSPGERATLSCRASQSVSSYLAWYQQKPGQAPRLLIYDASNRATGIPARFSGSGSGTDFTLTISSLQPEDFAVYYCQQRSNWPWTFGQGTKVEIKR
notes: IgG1/kappa; VL graft on IGKV3D-7*01
B7: TL1A-0056 (antibody, human IgG1, kappa, V domains shown)
VH: QVQLVQSGAEVKKPGASVKVSCKASGYDFTYYGISWVRQAPGQGLEWMGWISTYNGNTHYARMLQGRVTMTRDTSISTAYMELSRLRSDDTAVYYCARENYYGSGAYRGGMDVWGQGTTVTVSS
VL: EIVMTQSPATLSLSPGERATLSCRASQSVSSYLAWYQQKPGQAPRLLIYDASNRATGIPARFSGSGSGTDFTLTISSLQPEDFAVYYCQQRSNWPWTFGQGTKVEIKR
notes: IgG1/kappa; IGHV1-2*02 / IGKV3D-7*01 grafts
B8: TL1A-0052 (antibody, human IgG1, kappa, V domains shown)
VH: QVQLVQSGAEVKKPGASVKVSCKASGYDFTYYGISWVRQAPGQGLEWMGWISTYNGNTHYARMLQGRVTMTRDTSISTAYMELSRLRSDDTAVYYCARENYYGSGAYRGGMDVWGQGTTVTVSS
VL: DIQMTQSPSSLSASVGDRVTITCRASQSVSSYLAWYQQKPGKAPKLLIYDASNRATGVPSRFSGSGSGTDFTLTISSLQPEDFATYYCQQRSNWPWTFGQGTKVEIKR
notes: IgG1/kappa; IGHV1-2*02 / IGKV1-39*01 grafts
B9: TL1A-0053 (antibody, human IgG1, kappa, V domains shown)
VH: QVQLVQSGAEVKKPGASVKVSCKASGYDFTYYGISWVRQAPGQGLEWMGWISTYNGNTHYARMLQGRVTMTRDTSTSTVYMELSSLRSEDTAVYYCARENYYGSGAYRGGMDVWGQGTTVTVSS
VL: EIVMTQSPATLSLSPGERATLSCRASQSVSSYLAWYQQKPGQAPRLLIYDASNRATGIPARFSGSGSGTDFTLTISSLQPEDFAVYYCQQRSNWPWTFGQGTKVEIKR
notes: IgG1/kappa; IGHV1-46*01 / IGKV3D-7*01 grafts
B10: TL1A-0308 (antibody, human IgG1, kappa, V domains shown)
VH: QVQLVQSGAEVKKPGASVKVSCKASGYDFTYYGIGWVRQAPGQGLEWMGWISTYNTNTHYAPSLQGRVTMTTDTSTSTAYMELRSLRSDDTAVYYCARESYYGSGAFRGGMDVWGQGTTVTVSS
VL: DIQMTQSPSSLSASVGDRVTITCRASQSVSSYLAWYQQKPGKAPKLLIYDASNRATGVPSRFSGSGSGTDFTLTISSLQPEDFATYYCQQRSNWPWTFGQGTKVEIKR
notes: as for B3
B11: TL1A-0048 (antibody, human IgG1, kappa, V domains shown)
VH: QVQLVQSGAEVKKPGASVKVSCKASGYDFTYYGISWVRQAPGQGLEWMGWISTYNGNTHYARMLQGRVTMTRDTSISTAYMELSRLRSDDTAVYYCARENYYGSGAYRGGMDVWGQGTTVTVSS
VL: EIVLTQSPATLSLSPGERATLSCRASQSVSSYLAWYQQKPGQAPRLLIYDASNRATGIPARFSGSGSGTDFTLTISSLEPEDFAVYYCQQRSNWPWTFGQGTKVEIKR
notes: IgG1/kappa; VH graft on IGHV1-2*02
B12: TL1A-0045 (antibody, human IgG1, kappa, V domains shown)
VH: QVQLVQSGAEVKKPGASVKVSCKASGYDFTYYGISWVRQAPGQGLEWMGWISTYNGNTHYARMLQGRVTMTRDTSTSTVYMELSSLRSEDTAVYYCARENYYGSGAYRGGMDVWGQGTTVTVSS
VL: EIVLTQSPATLSLSPGERATLSCRASQSVSSYLAWYQQKPGQAPRLLIYDASNRATGIPARFSGSGSGTDFTLTISSLEPEDFAVYYCQQRSNWPWTFGQGTKVEIKR
notes: IgG1/kappa; VH graft on IGHV1-46*01
B13: TL1A-0042 (antibody, human IgG1, kappa, V domains shown)
VH: QVQLVQSGAEVKKPGASVKVSCKASGYDFTYYGISWVRQAPGQGLEWMGWISTYNGNTHYARMLQGRVTMTTDTSTRTAYMELRSLRSDDTAVYYCARENYYGSGAYRGGMDVWGQGTTVTVSS
VL: DIQMTQSPSSLSASVGDRVTITCRASQSVSSYLAWYQQKPGKAPKLLIYDASNRATGVPSRFSGSGSGTDFTLTISSLQPEDFATYYCQQRSNWPWTFGQGTKVEIKR
notes: TL1A-0002 heavy chain with light chain CDRs grafted on IGKV1-39*01 (DPK9)
B14: TL1A-0049 (antibody, human IgG1, kappa, V domains shown)
VH: QVQLVQSGAEVKKPGASVKVSCKASGYDFTYYGISWVRQAPGQGLEWMGWISTYNGNTHYARMLQGRVTMTRDTSTSTVYMELSSLRSEDTAVYYCARENYYGSGAYRGGMDVWGQGTTVTVSS
VL: DIQMTQSPSSLSASVGDRVTITCRASQSVSSYLAWYQQKPGKAPKLLIYDASNRATGVPSRFSGSGSGTDFTLTISSLQPEDFATYYCQQRSNWPWTFGQGTKVEIKR
notes: IgG1/kappa; IGHV1-46*01 / IGKV1-39*01 grafts

Key:
recombinant human TL1A [1] = target: T1, recombinant human TL1A; test: competition ELISA vs bio-TL1A-0002
Protocol: (§1) For this competition ELISA assay procedure, 96-well high binding plates (Corning, product number 3590) were coated with 1 μg/mL recombinant TL1A in 100 μL/well in Phospate Buffered Saline (PBS) overnight at 4° C. Plates were then blocked in PBS+0.02% casein solution and washed with PBS+0.05% Tween-20 following standard ELISA protocol. […] Plates were washed with PBS+0.05% Tween-20 following standard ELISA protocol, and Streptavidin-HRP (Southern Biotech, product number 7100-05) diluted to 1:10,000 in assay buffer was added to plates and incubated for 25-30 minutes at room temperature. Next, the plates were washed with PBS+0.05% Tween-20 following standard ELISA protocol, and then TMB substrate (BioFX Laboratories, catalog number TMBW-0100-01) was added to plates. Reactions were stopped after approximately 5 minutes by adding 0.18 M ortho-phosphoric acid to each well and absorbance was read at 450 nm.

recombinant human TL1A [2] = target: T2, recombinant human TL1A; test: cell-based or functional assay
recombinant human TL1A [3] = target: T2, recombinant human TL1A; test: competition ELISA, coated TL1A, competitor bio-TL1A-0002
Protocol: as §1

| Binder | Bioactivity relative to TL1A-0002 (recombinant human TL1A [1]) [fold] | IC50 (recombinant human TL1A [1]) [nM] | also measured |
| --- | --- | --- | --- |
| B1 | 1.2 | 5.3 |  |
| B2 | 1 | 4.4 |  |
| B3 |  |  | TF-1 NF-κB reporter cell bioassay IC50 (recombinant human TL1A [2]): 49.4 nM; TF-1 NF-κB reporter cell bioassay, Bioactivity relative to TL1A-0002 (recombinant human TL1A [2]): 1.4 fold; Whole blood IFNγ assay IC50 (recombinant human TL1A [2]): 1.23 nM; Whole blood IFNγ assay, Bioactivity relative to TL1A-0002 (recombinant human TL1A [2]): 1.5 fold; Bioactivity relative to TL1A-0002 (recombinant human TL1A [3]): 3 fold; IC50 (recombinant human TL1A [3]): 15 nM |
| B4 |  |  | Whole blood IFNγ assay IC50 (recombinant human TL1A [2]): 0.929 nM; Whole blood IFNγ assay, Bioactivity relative to TL1A-0002 (recombinant human TL1A [2]): 1.1 fold; Bioactivity relative to TL1A-0002 (recombinant human TL1A [3]): 1.8 fold; IC50 (recombinant human TL1A [3]): 9 nM |
| B5 | 1 | 4.5 |  |
| B6 | 0.9 | 3.9 |  |
| B7 | 0.8 | 3.8 |  |
| B8 | 0.8 | 3.5 |  |
| B9 | 1 | 4.5 |  |
| B10 |  |  | TF-1 NF-κB reporter cell bioassay IC50 (recombinant human TL1A [2]): 43 nM; TF-1 NF-κB reporter cell bioassay, Bioactivity relative to TL1A-0002 (recombinant human TL1A [2]): 1.2 fold; Whole blood IFNγ assay IC50 (recombinant human TL1A [2]): 0.81 nM; Whole blood IFNγ assay, Bioactivity relative to TL1A-0002 (recombinant human TL1A [2]): 1 fold; Bioactivity relative to TL1A-0002 (recombinant human TL1A [3]): 2.8 fold; IC50 (recombinant human TL1A [3]): 14.2 nM |
| B11 | 0.9 | 4.1 |  |
| B12 | 1.2 | 5.5 |  |
| B13 | 0.9 | 4.2 |  |
| B14 | 1.1 | 4.9 |  |
